In the supplement of paper PMC12764529:
± gives the half width of the 95% confidence interval.

Tests used:
[1] = folding stability dG unfold from trypsin proteolysis; higher = more stable
In short: (§1)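 Unfolding free energy was derived, per protease or combined, by relating Bayesian-fitted K50 values from sequencing counts to a sequence-predicted unfolded-state K50 and a shared folded-state K50. The underlying digests exposed cysteine-free mini-proteins under 80 residues, in a PA-tagged cDNA display construct, to trypsin and chymotrypsin at 11 threefold-diluted concentrations and to a no-protease condition. A filter kept only designs with AlphaFold2 dimer inter-PAE above 15.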

[2] = folding stability dG unfold from chymotrypsin proteolysis; higher = more stable
In short: as §1

[3] = folding stability dG unfold (combined trypsin and chymotrypsin); higher = more stable
In short: as §1

| Sequence | folding stability dG unfold [1] [kcal/mol] | folding stability dG unfold [2] [kcal/mol] | folding stability dG unfold [3] [kcal/mol] |
| --- | --- | --- | --- |
| SAGGSAGGSAGGMEVYRNPETGTLVFLFELEDGSYVAVTINPDGSVEVRVFDKDGRWVPSAGGSAGGSAGGS [r10_299_TrROS_Hall] | 2.61 ± 0.064 | 3.507 ± 0.027 | 3.03 ± 0.081 |
| SAMKVYIAASSPEEIEGWIEEARKAGIDGPELIFVSPDDRVYKAEIIPNTGEVKIEPVKPIEELLKELPSAG [r14_913_TrMRF] | 1.09 ± 0.11 | 0.788 ± 0.4 | 0.955 ± 0.34 |
| SAGGSAGGSAGGSKFLVKTSVEVFKNPVGGNRYGAKITTLAVNPDTNEVTLSESYLPLDLSAGGSAGGSAGG [r7_216_TrMRF] | 0.114 ± 0.11 | 0.842 ± 0.13 | 0.62 ± 0.12 |
| SMEEIAKEIAEKAGVNWENVEFKVEEKEDPETGEKYLIAHVVIKLPNEKYIAVIDLRDKKILEIWKLEDISA [r9_1219_TrMRF] | 2.91 ± 0.11 | 3.73 ± 0.063 | 3.61 ± 0.11 |
| SGGMVNATVTVTLPLPDLPPVTLTVTITEEATPEEAEARKKALAAELEAELRAAAADAALPAPALTSALLSA [r9_626_JUSTAS] | 1.85 ± 0.032 | 0.156 ± 0.43 | 1.24 ± 0.29 |
| SAGGEPPPVRVSFSVEEVTVGAGPVFVRRVVTYDPAEGRVSEFVEVFERGRGGLLGRSSRTVPAEELASAGG [r13_772_TrMRF] | 4.08 ± 0.15 | 4.7 ± 0.13 | 4.44 ± 0.16 |
| SAGGMLVVLLDDRPEVLPVNPERFETPEEAVEAVAREVAERFPDAGERRVVVVNEDGEEVATVELTPESAGG [r13_257_TrMRF] | -1.08 ± 0.12 | 0.875 ± 0.04 | 0.459 ± 0.052 |
| SAGGGSMIKKTLEEEPVGESTVSKSTVTLPDGTPVSVTSTTTKVGNTWTTTTTTNYGSSTTTTTTTTSAGGS [r16_476_JUSTAS] | -0.638 ± 0.21 | 0.419 ± 0.11 | 0.156 ± 0.15 |
| SAGGKSVHIPGLSFEDLRDLIRNLPEPVTIHIEMPMRYPMYKYENGKPKEWQRQEMPMTSTFKIPPDDSAGG [r13_632_TrROS] | -1.01 ± 0.47 | -0.522 ± 0.36 | -0.565 ± 0.23 |
| SASFTLTPVTVTLSPDPETGAILAPVLATAGDHPVFGLAYVDPLDPSRAYYRIYYPPSDLVEYAVVPLPSAG [r14_178_TrMRF] | 0.469 ± 0.066 | 0.847 ± 0.15 | 0.722 ± 0.097 |
| KYELVATLSRPNPETGTVVNVSVYRFEDGSYRVLVDVSTFYRTPDGSLRTSSSRAVFLVPEDVDPRELVESS [r1_243_TrMRF] | 2.75 ± 0.039 | 3.57 ± 0.081 | 3.17 ± 0.11 |
| SAGGSAGGSGSSSMPVTVEVKPLATEVDPSNGLVTVTELVTVTRGDTTTLTVTTTTLPPGAPASAGGSAGGS [r12_1010_JUSTAS] | 1.16 ± 0.027 | 0.00037 ± 0.064 | 0.591 ± 0.098 |
| SAGGSAGGSMTVETTPLATSRDPESDNTVTLTRTTVTFPDGTVRTETWTVTTAPDGTTTTTVSSAGGSAGGS [r12_250_JUSTAS] | 0.00376 ± 0.037 | 1.35 ± 0.033 | 0.999 ± 0.049 |
| SAMVSVTELPDGGVLATFPLPDGHPATAVFDPADLKPSVAYFPNGLRAVLRVTPDGRVELLAVEDVPPASAG [r14_877_TrMRF] | 0.892 ± 0.023 | 0.963 ± 0.1 | 0.943 ± 0.052 |
| SPPFKIKEIKIEIFPNGTVKIEYRFPSSGHYVKFSIPVDPKKGRIPINMEIYNPDNGKVWEFSATIRIKKSA [r9_825_TrROS] | 3.34 ± 0.17 | 4.86 ± 0.077 | 4.69 ± 0.2 |
| SAGGSAGGMVTSSVSALPDGSYRLTITYPDGTVLTFEFDSEEEVAALLAELAEALPADAAVPLASAGGSAGG [r6_464_JUSTAS] | 1.64 ± 0.059 | 1.65 ± 0.046 | 1.71 ± 0.065 |
| DMEPEPFTIELPNVKIEVQVYRTPNKLSVNAPIEFPNGKNLTISFKYEPTPDGIKLEISIMIPKKAIEKLLS [r1_153_TrROS] | 2.33 ± 0.097 | 3.44 ± 0.1 | 3.1 ± 0.3 |
| SAGNPDKPPKPRTYTLEIEIKLPPGDPDQAKELAHEIAHEIRDLGIKDTEVEYDPGNGRVRISITFTFWSAG [r5_512_TrROS] | 2.8 ± 0.076 | 3.49 ± 0.09 | 3.27 ± 0.28 |
| SAGGSKPLKKIVIPLTPEELKKLKGKKVKITIKVDGKEYEIEFIDGYAVITVPAGEKVEITKIEIESAGGSA [r2_246_TrROS_Hall] | 2.47 ± 0.15 | 2.36 ± 0.12 | 2.41 ± 0.22 |
| SAGGSAGGSAKITIELDGITEVEFDEETGELYLRIEVDGKLYEIRITEDGTIEIREVPLEDSAGGSAGGSAG [r3_62_TrROS_Hall] | 1.86 ± 0.097 | 3.63 ± 0.11 | 3.13 ± 0.17 |
| SAGGSAGGSAGMTITVPITDLEKLKTMPELPVEVIEEGEGPPTATLDASNPELAKQAYSSSAGGSAGGSAGG [r11_65_JUSTAS] | -0.0977 ± 0.18 | 0.117 ± 0.49 | – |
| SAGGMVVVKIRIEREVDGKVEEVELVLEVELDEDGKVSAEELKALLKELLPENVKITEIEVVEPGEEPSAGG [r13_504_TrROS_Hall] | 4.76 ± 0.69 | 3.39 ± 0.2 | – |
| SLEEFLASEEAKKRLEALKPPPPVETIRIKVKAKSVEEALKAIRELFPGVEVVKIKEVRPDGYLEVEVRRSA [r9_723_TrROS_Hall] | 3.89 ± 0.41 | 2.37 ± 0.36 | – |

| Sequence | folding stability dG unfold [1] [kcal/mol] | folding stability dG unfold [2] [kcal/mol] | folding stability dG unfold [3] [kcal/mol] |
| --- | --- | --- | --- |
| SAGGSAGGSAGGGMGSSVTITTEEDPTDETETTKKTKVTLNLPNPEEAEALKKKIEEKESAGGSAGGSAGGS [r10_1180_JUSTAS] | -0.47 ± 0.18 | -0.807 ± 0.68 | – |
| SAGGSAGGSEEVEIRIVLPDMSEEELKAALEALLSEPGAEIEIVRVERREDGSLVVTVKVRVPSAGGSAGGS [r12_348_TrROS_Hall] | 4.83 ± 0.43 | 2.9 ± 0.12 | – |
| SAGEIAEALGFEVVDVSIEEVDGKLRITVVVRFKDNDLVITAEAEVTEVDGELKIEIKITIEPLPPEDLSAG [r5_516_TrROS_Hall] | 2.85 ± 0.26 | 3.66 ± 0.37 | – |
| SAGGSAGGSAGGSKKVIEVPAKDLTPEQLKKLAKEGETIEITFPNGEKKEIPAEKLKPKSAGGSAGGSAGGS [r4_382_TrROS_Hall] | 0.115 ± 0.15 | -0.998 ± 0.9 | – |
| SAMTIEITVPPGMSVEELAKLLKELFPEVEEIKIEVEYDEETKELKVRIEIRPKPELSEEEKEALEKLKSAG [r14_645_TrROS_Hall] | 2.9 ± 0.28 | 3.99 ± 0.47 | – |
| SAGGSAETYPVTVVVPLPPGGRELPVEELEDLVRETLANVPDLPDVKVEVTLLEPEGRALVRVEFPSAGGSA [r15_1029_TrMRF] | 0.0434 ± 0.12 | – | -0.594 ± 0.16 |
| SAGGSAGGSAGGPIKVKADKVTVEKRRNPENGKEYVELTVPGPGGTRTGRFPAEDLDKISAGGSAGGSAGGS [r10_447_TrROS] | -0.654 ± 0.21 | – | < -1 |
| SAGGSMEIPLGETIPIFFDDVIIEIEPETHEIHVIAEDSEKALELIKNLPFPIPAGEVKELSPEEFSAGGSA [r2_418_TrMRF] | 0.352 ± 0.042 | – | -0.364 ± 0.21 |
| SAGGSAGGSAGGAMREVPIVLPFSPEMSEEEARALIEEELKRKGDPIAKLVIDKKSPALLSAGGSAGGSAGG [r7_703_JUSTAS] | -0.687 ± 0.45 | – | < -1 |
| SAGGMTEIEPDSEEKAEAEIEKVVEEEAEKALKSEKKNVTIKVDVKVVDPVTGKSKTYPVEKLVKLPSAGGS [r8_163_JUSTAS] | -1.4 ± 0.83 | – | < -1 |
| SAGGSAGGSAGGPKIDHVMLHRNPGNGRYNVTIKLRDPNGKPKDTIMVPMNDPEKILDALSAGGSAGGSAGG [r7_484_TrROS] | -0.0862 ± 0.06 | – | -0.652 ± 0.22 |
| SAGGSAGGSQKIEITKVEPERGPNGRPYHRVNIEIVIPDGKPRKFDFYFDDPEDLENMTIELPSAGGSAGGS [r20_130_TrROS] | -0.861 ± 0.17 | – | -0.88 ± 0.19 |
| SAGGSAGGSAGKVKVKVESNPDGTLIIAEEFEDFVVIVELKVDDDGIHFHPHPVVLSKELSAGGSAGGSAGG [r17_72_TrMRF] | 0.0484 ± 0.1 | – | -0.695 ± 0.38 |
| SAGMSTSGPIFVPEGPPAIYISYPKPNVKFVVPVSEGIEAVKKRAEEPGLNPVIIKVVETPPGVPVTLSAGG [r19_386_JUSTAS] | -0.988 ± 0.34 | – | < -1 |
| SAGGSAGGSMKPVLTIPASVTDPEVAIAILREAKAALPEGTQLEVVMPGGAEEELKKAGLILKSAGGSAGGS [r12_992_JUSTAS] | -1.4 ± 0.71 | – | < -1 |
| SMNVKPFSSTISNPAVTVTTPITQPSSGEGTATLTIHRPESVTTTTHPVTDLQALIDSHAAGGVSLTGTSSA [r9_384_JUSTAS] | -0.377 ± 0.095 | – | < -1 |
| SAGGSAGGSAGMMEEKLIKEYEDPNGGKKYTIKLVKDPKTGKEKIVKETIEPNKKTTEIKNLSAGGSAGGSA [r18_444_JUSTAS] | -0.36 ± 0.21 | – | -0.365 ± 0.62 |
| SAGGMTPEELKKVTIEKTVKDPSGNEYLEKSEVKEVEKKDEKYILKIPYTIKDKNGNTISNGTKTIPLSAGG [r13_172_JUSTAS] | -0.446 ± 0.5 | – | < -1 |
| SAAPTSSGPISLNKPEILTITSVEADPETGTITTPTRVELTEEELDPFNPEIPTFKKKYLDVTLTTPTSSAG [r14_888_JUSTAS] | -0.643 ± 0.45 | – | < -1 |
| SAGGTTTESVSEDSTDNGEYVTTTTTTDPVGPSTVVTTTTTTTPADGTTTTTTTTYTVPPGAPASAVVSAGG [r13_3_JUSTAS] | 0.354 ± 0.052 | – | -0.00338 ± 0.16 |
| SAGGSSLDEKIKQAVEEGKVPTEIEFTDPSNDLKTRYLVTVKSVLPGSYEVEVEEEIFDPDNPVLVSAGGSA [r2_420_JUSTAS] | -1.07 ± 0.27 | – | < -1 |
| SAGGMVVTSESREPDGTWTVRTVYRDPAGNLTITSSSTSSATVTRKDSAGTPSTAASTTNTYTSAALSAGGS [r8_270_JUSTAS] | 0.216 ± 0.067 | – | -0.281 ± 0.15 |
